{"source": "patent US20240025992A1", "about": "(Janssen / Centocor, published 2024)", "binders": {"B1": {"name": "DL3B575 (Fc fusion)", "scFv": "DIVMTQSPLSSPVTLGQPASISCRSSQSLVHSDGNTYLNWLQQRPGQPPRLLIYQISNPFSGVPDRFSGSGAGTDFTLKISRVEAEDVGVYYCMQATQFPHTFGPGTKVEIKGGSEGKSSGSGSESKSTGGSQVQLVQSGAEVKKPGSSVKVSCKASGGTLSSYVISWVRQAPGQGLEWMGGIIPIFGTANYAQKFQDRVTITADKSTNTAYMELTSLTSEDTAVYYCARDPFSDLWGRGTMVTVSS", "notes": "also called DL3B461 scFv-Fc; not shown: wild-type IgG1 Fc domain"}, "B2": {"name": "DL3W33, Recombinant Human DLL1 ECD (Ser22-Gly540), -DI-C-6xHis (ligand)", "chain": "SGVFELKLQEFVNKKGLLGNRNCCRGGAGPPPCACRTFFRVCLKHYQASVSPEPPCTYGSAVTPVLGVDSFSLPDGGGADSAFSNPIRFPFGFTWPGTFSLIIEALHTDSPDDLATENPERLISRLATQRHLTVGEEWSQDLHSSGRTDLKYSYRFVCDEHYYGEGCSVFCRPRDDAFGHFTCGERGEKVCNPGWKGPYCTEPICLPGCDEQHGFCDKPGECKCRVGWQGRYCDECIRYPGCLHGTCQQPWQCNCQEGWGGLFCNQDLNYCTHHKPCKNGATCTNTGQGSYTCSCRPGYTGATCELGIDECDPSPCKNGGSCTDLENSYSCTCPPGFYGKICELSAMTCADGPCFNGGRCSDSPDGGYSCRCPVGYSGFNCEKKIDYCSSSPCSNGAKCVDLGDAYLCRCQAGFSGRHCDDNVDDCASSPCANGGTCRDGVNDFSCTCPPGYTGRNCSAPVSRCEHAPCHNGATCHERGHGYVCECARGYGGPNCQFLLPELPPGPAVVDLTEKLEGQGDIHHHHHH", "notes": "also called huDLL1; TPP000049465"}, "B3": {"name": "CD3W245-HL-E.c. (scFv)", "scFv": "EVQLVESGGGLVKPGGSLRLSCAASGFTFSRYNMNWVRQAPGKGLEWVSSISTSSNYIYYADSVKGRFTFSRDNAKNSLDLQMSGLRAEDTAIYYCTRGWGPFDYWGQGTLVTVSSGTEGKSSGSGSESKSTDIQMTQSPSSLSASVGDRVTITCRARQSIGTAIHWYQQKPGKAPKLLIKYASESISGVPSRFSGSGSGTDFTLTISSLQPEDFATYYCQQSGSWPYTFGQGTKLEIKGPGGQHHHHHHGAYPYDVPDYAS", "notes": "Tested as E. coli supernatant; also called CD3W245 scFv-HL; CD3W245 scFv HL expressed in E. coli"}, "B4": {"name": "DL3W34, human DLL4 ECD (Ser27-Pro524), C-10xHis (ligand)", "chain": "SGVFQLQLQEFINERGVLASGRPCEPGCRTFFRVCLKHFQAVVSPGPCTFGTVSTPVLGTNSFAVRDDSSGGGRNPLQLPFNFTWPGTFSLIIEAWHAPGDDLRPEALPPDALISKIAIQGSLAVGQNWLLDEQTSTLTRLRYSYRVICSDNYYGDNCSRLCKKRNDHFGHYVCQPDGNLSCLPGWTGEYCQQPICLSGCHEQNGYCSKPAECLCRPGWQGRLCNECIPHNGCRHGTCSTPWQCTCDEGWGGLFCDQDLNYCTHHSPCKNGATCSNSGQRSYTCTCRPGYTGVDCELELSECDSNPCRNGGSCKDQEDGYHCLCPPGYYGLHCEHSTLSCADSPCFNGGSCRERNQGANYACECPPNFTGSNCEKKVDRCTSNPCANGGQCLNRGPSRMCRCRPGFTGTYCELHVSDCARNPCAHGGTCHDLENGLMCTCPAGFSGRRCEVRTSIDACASSPCFNRATCYTDLSTDTFVCNCPYGFVGSRCEFPVGLPHHHHHHHHHH", "notes": "also called huDLL4; TPP0000494661"}, "B5": {"name": "DL3W35, extracellular domain of human DLL3 linked to a C-terminal 6xHis-Tag and a linker (ligand)", "chain": "AGVFELQIHSFGPGPGPGAPRSPCSARLPCRLFFRVCLKPGLSEEAAESPCALGAALSARGPVYTEQPGAPAPDLPLPDGLLQVPFRDAWPGTFSFIIETWREELGDQIGGPAWSLLARVAGRRRLAAGGPWARDIQRAGAWELRFSYRARCEPPAVGTACTRLCRPRSAPSRCGPGLRPCAPLEDECEAPLVCRAGCSPEHGFCEQPGECRCLEGWTGPLCTVPVSTSSCLSPRGPSSATTGCLVPGPGPCDGNPCANGGSCSETPRSFECTCPRGFYGLRCEVSGVTCADGPCFNGGLCVGGADPDSAYICHCPPGFQGSNCEKRVDRCSLQPCRNGGLCLDLGHALRCRCRAGFAGPRCEHDLDDCAGRACANGGTCVEGGGAHRCSCALGFGGRDCRERADPCAARPCAHGGRCYAHFSGLVCACAPGYMGARCEFPVHPDGASALPAAHPGGGSGGGSGGGSHHHHHH", "notes": "also called human DLL3 ECD; huDLL3"}}, "key": {"[1]": {"molecular_target": "T1, DL3W36, human DLL3 EGF6 domain+C-term ECD sequence, HSA Fusion and C-term 6 His tag (human)", "T1 construct": "Fusion with the C34S variant of human serum albumin, plus 6xHis; also called EGF-6 and C-terminal fusion domain; EGF6 + Cterm", "T1 sequence (chain, as listed by the source limits assumed)": "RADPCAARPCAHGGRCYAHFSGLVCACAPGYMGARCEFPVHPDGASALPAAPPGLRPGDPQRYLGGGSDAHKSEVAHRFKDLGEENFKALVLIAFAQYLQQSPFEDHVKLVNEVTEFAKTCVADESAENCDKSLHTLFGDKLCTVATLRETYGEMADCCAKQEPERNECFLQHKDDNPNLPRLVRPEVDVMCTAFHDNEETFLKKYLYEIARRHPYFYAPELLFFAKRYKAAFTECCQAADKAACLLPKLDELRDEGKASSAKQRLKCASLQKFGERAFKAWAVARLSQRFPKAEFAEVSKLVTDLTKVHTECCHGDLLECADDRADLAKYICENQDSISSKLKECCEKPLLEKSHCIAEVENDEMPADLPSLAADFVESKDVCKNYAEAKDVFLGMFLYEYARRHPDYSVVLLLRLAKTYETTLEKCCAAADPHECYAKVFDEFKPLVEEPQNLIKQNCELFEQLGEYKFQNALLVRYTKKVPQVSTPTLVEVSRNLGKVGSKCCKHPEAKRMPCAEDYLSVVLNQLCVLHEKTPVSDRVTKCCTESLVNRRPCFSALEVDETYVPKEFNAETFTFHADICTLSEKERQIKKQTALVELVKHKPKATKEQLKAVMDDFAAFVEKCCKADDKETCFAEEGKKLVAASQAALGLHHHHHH", "experiment": "MSD plate binding assay on coated DLL3 domain-HSA fusions", "method": "The plates were washed with PBS with 0.1% Tween and then blocked with Starting block solution for 30 minutes. […] Antigen bound antibody was detected with sulfo-tagged anti-human antibody (Meso Scale Discovery, R32AJ) for 60 minutes at ambient temperature followed by another PBS wash. Signal acquisition was done in the presence of 1× MSD read buffer T (MSD, Cat #R92TC-1) on the MSD Sector 600 imager with appropriate plate settings. Data was analyzed for the highest binding signal per domain indicating the preferential domain binding."}, "[2]": {"molecular_target": "B5", "experiment": "SPR (ProteOn), antibody captured by anti-Fc, DLL3 (DL3W35) titrated", "method": "(§1) The association and dissociation were monitored for 5 and 30 minutes, respectively, using a flow rate of 50 μL/min. Kinetic information (on-rate and off-rate constants) were extracted by fitting sensorgrams to the 1:1 Langmuir binding model. Binding affinity (KD) are reported as the ratio of rate constants (koff/kon)."}, "[3]": {"molecular_target": "B2", "experiment": "SPR (ProteOn), antibody captured by anti-Fc; DLL1 at 100 nM and 1000 nM", "method": "as §1"}, "[4]": {"molecular_target": "B4", "experiment": "SPR (ProteOn), antibody captured by anti-Fc; DLL4 at 100 nM and 1000 nM", "method": "as §1"}, "DL3B574 [5]": {"molecular_target": "T2, DL3B574", "T2 construct": "also called DL3B450 scFv-Fc; not shown: wild-type IgG1 Fc domain", "experiment": "SPR (ProteOn), antibody captured by anti-Fc; DLL1 at 100 nM and 1000 nM"}, "[6]": {"molecular_target": "T3, CD3W147, homodimeric CD3εγ-Fc (biotinylated)", "T3 construct": "also called recombinant CD3; biotinylated CD3W147", "T3 chain": "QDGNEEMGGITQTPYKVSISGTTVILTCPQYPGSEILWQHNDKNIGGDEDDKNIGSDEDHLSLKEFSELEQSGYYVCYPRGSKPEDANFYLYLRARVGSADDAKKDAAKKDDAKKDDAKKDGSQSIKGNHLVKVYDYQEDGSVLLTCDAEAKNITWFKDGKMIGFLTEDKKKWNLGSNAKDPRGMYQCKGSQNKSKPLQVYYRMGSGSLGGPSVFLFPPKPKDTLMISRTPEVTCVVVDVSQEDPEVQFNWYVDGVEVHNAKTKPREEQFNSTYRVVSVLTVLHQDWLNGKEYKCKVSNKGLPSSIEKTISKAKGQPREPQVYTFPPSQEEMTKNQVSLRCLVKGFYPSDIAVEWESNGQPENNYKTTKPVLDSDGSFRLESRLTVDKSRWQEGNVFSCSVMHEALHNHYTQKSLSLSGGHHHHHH", "experiment": "ELISA, biotinylated CD3W147 immobilized, scFv in E. coli supernatant", "method": "Protein expression was induced by addition of 1 mM IPTG and cultures were grown overnight. After expression, cells were pelleted by centrifugation at 2,200×g for 5 min and supernatants were collected and tested directly for binding to biotinylated CD3W147 by ELISA.\nBiotinylated CD3W147 was immobilized on the plate in concentrations ranging from 0.039 μg/mL to 2.5 μg/mL in 2-fold dilutions followed by incubation at room temperature for 45 min. Bound scFv was detected using chicken anti-HA-horseradish peroxidase and then detected with chemiluminescence substrate."}, "DL3B574 [7]": {"molecular_target": "T2, DL3B574", "experiment": "SPR (ProteOn), antibody captured by anti-Fc; DLL4 at 100 nM and 1000 nM", "method": "as §1"}, "DL3B574 [8]": {"molecular_target": "T2, DL3B574", "experiment": "SPR (ProteOn), antibody captured by anti-Fc, DLL3 (DL3W35) titrated", "method": "as §1"}}, "data": [{"binder": "B1", "values": [{"measurement": "binding result", "setting": "[1]", "result": "binds"}, {"measurement": "Kd", "setting": "[2]", "result": 0.31, "unit": "nM"}, {"measurement": "binding result", "setting": "[3]", "result": "no binding (tested: 1000 nM)"}, {"measurement": "binding result", "setting": "[4]", "result": "no binding (tested: 1000 nM)"}]}, {"binder": "B2", "values": [{"measurement": "binding result", "setting": "DL3B574 [5]", "result": "no binding (tested: 1000 nM)"}]}, {"binder": "B3", "values": [{"measurement": "binding result", "setting": "[6]", "result": "binds"}]}, {"binder": "B4", "values": [{"measurement": "binding result", "setting": "DL3B574 [7]", "result": "no binding (tested: 1000 nM)"}]}, {"binder": "B5", "values": [{"measurement": "Kd", "setting": "DL3B574 [8]", "result": 2.37, "unit": "nM"}]}]}
